The numbers were not newly measured in paper PMC2943937, which cites them from elsewhere.

The series concerns the target CAR (Mus musculus) (UniProt P97792).
Chain of UniProt P97792 (P97792 20-237): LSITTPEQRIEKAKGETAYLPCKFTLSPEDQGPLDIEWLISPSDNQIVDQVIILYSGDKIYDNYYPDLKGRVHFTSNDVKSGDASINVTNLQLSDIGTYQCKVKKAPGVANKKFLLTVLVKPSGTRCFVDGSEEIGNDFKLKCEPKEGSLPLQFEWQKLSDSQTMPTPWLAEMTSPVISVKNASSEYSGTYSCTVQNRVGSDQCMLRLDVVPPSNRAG

For JAML (from UniProt Q80UL9), the Kd – broadly, the concentration at which binding is half-saturated – is 5 µM.
